Here are results for two molecules from publication PMC6532946, “Structure and assembly of pilotin-dependent and -independent secretins of the type II secretion system” (PLoS Pathogens, 2019).

Series [1] has as its target EpsD secretin from V. vulnificus (cell-free synthesized, His-tagged) (V. vulnificus). Description: cryo-EM structure; purified multimers in TN buffer with Zw3-14, Quantifoil holey carbon grids with an extra 2 nm carbon layer; 2D class averages of top views; C15 symmetry imposed in the reconstruction.
Series [2] deals with the molecule itself. Described as above.

In general, stoichiometry N refers to a count of units in the complex or per binding partner.

Molecule “EpsD secretin from V. vulnificus (cell-free synthesized, His-tagged) (natural protein)” came in with a stoichiometry N in series [1] of 15.

B1: ExeD secretin from A. hydrophila (cell-free synthesized, His-tagged) (natural protein)
chain: TEYSASFKNADIEEFINTVGKNLSKTIIIEPSVRGKINVRSYDLLNEEQYYQFFLSVLDVYGFAVVPMDNGVLKVVRSKDAKTSAIPVVDETNPGIGDEMVTRVVPVRNVSVRELAPLLRQLNDNAGGGNVVHYDPSNVLLITGRAAVVNRLVEVVRRVDKAGDQEVDIIKLKYASAGEMVRLVTNLNKDGNSQGGNTSLLLAPKVVADERTNSVVVSGEPKARARIIQMVRQLDRDLQSQGNTRVFYLKYGKAKDMVEVLKGVSSSIEADKKGGGTATTAGGGASIGGGKLAISADETTNALVITAQPDVMAELEQVVAKLDIRRAQVLVEAIIVEIADGDGLNLGVQWANTNGGGTQFTNAGPGIGSVAIAAKDYKDNGTTTGLAKLAENFNGMAAGFYQGNWAMLVTALSTNTKSDILSTPSIVTMDNKEASFNVGQEVPVQTGTQNSTSGDTTFSTIERKTVGTKLVVTPQINEGDSVLLTIEQEVSSVGKQATGTDGLGPTFDTRTVKNAVLVKSGETVVLGGLMDEQTKEEVSKVPLLGDIPVLGYLFRSTSNNTSKRNLMVFIRPTILRDANVYSGISSNKYTLFRAQQLDAVAQEGYATSPDRQVLPEYGQDVTMSPEAQKQIELMKTHQQATADGVQPFVQGNK
notes: ExeD, T2SS secretin of Aeromonas hydrophila; a TEV cleavage site linker lies between the His-6 tag and the protein. numbers count on: the mature protein; No TEV cleavage is described; also called pilotin-independent ExeD; GspD; source: cell-free expression system with liposomes, extracted as multimers with Zw3-14, purified (Ni-NTA, Superose 6); copies: 15
For the molecule B1, the “stoichiometry N” value in series [2] was 15.
